Earlier results in PMC6962051.

Target: linear di-ubiquitin (Homo sapiens) (UniProt P0CG47)
Test: isothermal titration calorimetry

Sequence of NEMO CoZi (Q9Y6K9 258-350): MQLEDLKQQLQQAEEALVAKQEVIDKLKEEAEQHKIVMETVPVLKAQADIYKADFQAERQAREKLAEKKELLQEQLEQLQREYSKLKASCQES

NEMO CoZi (from UniProt Q9Y6K9)
Kd: 2.4 µM
